Changes are numbered by the printed parent chain.
Key:
Test in all cases: holdup assay
Design in all cases: key: below the threshold = too weak to quantify, mostly under pKd 3.1 to 4
[1] = molecular target: AHNAK1, Q09666
[2] = molecular target: T1, APBA1_2, Q02410
T1 sequence (Q02410 742-832, limits assumed, looked up): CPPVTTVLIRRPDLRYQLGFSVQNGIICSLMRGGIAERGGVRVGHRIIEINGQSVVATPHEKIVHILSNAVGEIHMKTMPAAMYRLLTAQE

[3] = molecular target: T2, APBA2_1, Q99767
T2 sequence (Q99767 563-664, limits assumed, looked up): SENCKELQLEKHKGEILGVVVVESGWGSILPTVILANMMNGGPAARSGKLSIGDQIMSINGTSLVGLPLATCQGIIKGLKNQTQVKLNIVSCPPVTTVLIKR

[4] = molecular target: T3, ARHGEF11, O15085
T3 sequence (O15085 42-136, limits assumed, looked up): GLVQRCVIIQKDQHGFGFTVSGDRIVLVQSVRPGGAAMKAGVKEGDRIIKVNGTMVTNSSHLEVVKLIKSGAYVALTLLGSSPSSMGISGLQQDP

[5] = molecular target: DLG1_2, Q12959
Chain of DLG1_2, Q12959 (Q12959 314-412): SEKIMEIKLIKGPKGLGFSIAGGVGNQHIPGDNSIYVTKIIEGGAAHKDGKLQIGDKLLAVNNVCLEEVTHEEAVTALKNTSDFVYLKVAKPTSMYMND

[6] = molecular target: DLG2_3, Q15700
[7] = molecular target: T4, DLG3_1, Q92796
T4 sequence (Q92796 125-227, limits assumed, looked up): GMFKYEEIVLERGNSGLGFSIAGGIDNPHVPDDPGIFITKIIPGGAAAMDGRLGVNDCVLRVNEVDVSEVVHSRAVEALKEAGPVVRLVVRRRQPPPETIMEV

[8] = molecular target: DLG5_1, Q8TDM6
Chain of DLG5_1, Q8TDM6 (Q8TDM6 617-713): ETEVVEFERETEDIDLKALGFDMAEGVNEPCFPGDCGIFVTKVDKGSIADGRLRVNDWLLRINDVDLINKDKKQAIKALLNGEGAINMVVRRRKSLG

[9] = molecular target: FRMPD2_3, Q68DX3
Chain of FRMPD2_3, Q68DX3 (Q68DX3 1073-1166): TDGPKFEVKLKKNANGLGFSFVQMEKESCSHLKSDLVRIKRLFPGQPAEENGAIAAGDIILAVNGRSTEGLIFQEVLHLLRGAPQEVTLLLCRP

[10] = molecular target: FRMPD3, Q5JV73
Chain of FRMPD3, Q5JV73 (Q5JV73 12-100): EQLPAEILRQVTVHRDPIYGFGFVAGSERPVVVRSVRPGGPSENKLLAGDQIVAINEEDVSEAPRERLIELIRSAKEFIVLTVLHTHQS

[11] = molecular target: GRASP, Q7Z6J2
Chain of GRASP, Q7Z6J2 (Q7Z6J2 96-193): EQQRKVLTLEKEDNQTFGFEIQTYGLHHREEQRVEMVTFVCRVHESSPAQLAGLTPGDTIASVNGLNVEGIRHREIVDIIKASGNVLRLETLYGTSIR

[12] = molecular target: GRIP2_7, Q9C0E4
Chain of GRIP2_7, Q9C0E4 (Q9C0E4 934-1023): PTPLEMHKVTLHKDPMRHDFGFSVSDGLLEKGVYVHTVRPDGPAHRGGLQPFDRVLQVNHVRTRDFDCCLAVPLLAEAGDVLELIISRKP

[13] = molecular target: HTRA2, O43464
Chain of HTRA2, O43464 (O43464 355-458): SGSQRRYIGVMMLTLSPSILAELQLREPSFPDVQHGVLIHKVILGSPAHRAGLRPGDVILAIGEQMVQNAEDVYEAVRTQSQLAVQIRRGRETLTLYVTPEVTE

[14] = molecular target: Inadl_10, Q8NI35
Chain of Inadl_10, Q8NI35 (Q8NI35 1673-1763): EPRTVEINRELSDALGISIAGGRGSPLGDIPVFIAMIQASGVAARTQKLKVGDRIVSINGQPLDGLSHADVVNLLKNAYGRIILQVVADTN

[15] = molecular target: Inadl_9, Q8NI35
Chain of Inadl_9, Q8NI35 (Q8NI35 1530-1615): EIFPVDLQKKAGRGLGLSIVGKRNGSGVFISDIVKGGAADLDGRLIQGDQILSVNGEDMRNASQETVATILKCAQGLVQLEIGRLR

[16] = molecular target: LIMK2, P53671
Chain of LIMK2, P53671 (P53671 143-248): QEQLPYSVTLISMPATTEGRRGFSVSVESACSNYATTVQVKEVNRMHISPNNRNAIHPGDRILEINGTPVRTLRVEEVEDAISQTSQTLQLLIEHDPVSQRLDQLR

[17] = molecular target: T5, LIN7A, O14910
T5 sequence (O14910 103-200, limits assumed, looked up): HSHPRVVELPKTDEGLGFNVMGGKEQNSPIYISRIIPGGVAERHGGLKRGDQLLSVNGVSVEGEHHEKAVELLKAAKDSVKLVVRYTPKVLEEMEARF

[18] = molecular target: T6, LIN7C, Q9NUP9
T6 sequence (Q9NUP9 88-185, limits assumed, looked up): T5 sequence (O14910 103-200, limits assumed, looked up) with D13E, V20I, V40I, E42D, K77Q, D78G, S79K, A96S

[19] = molecular target: LNX1_1, Q8TBB1
Chain of LNX1_1, Q8TBB1 (Q8TBB1 261-371): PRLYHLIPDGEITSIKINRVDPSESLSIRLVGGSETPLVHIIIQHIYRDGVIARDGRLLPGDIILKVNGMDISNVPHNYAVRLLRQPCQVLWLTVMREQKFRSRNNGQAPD

[20] = molecular target: LNX1_2, Q8TBB1
Chain of LNX1_2, Q8TBB1 (Q8TBB1 371-470): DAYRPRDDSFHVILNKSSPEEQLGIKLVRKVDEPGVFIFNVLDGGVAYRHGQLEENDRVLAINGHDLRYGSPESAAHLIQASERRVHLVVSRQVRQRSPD

[21] = molecular target: MAGI2_6, Q86UL8
Chain of MAGI2_6, Q86UL8 (Q86UL8 1141-1229): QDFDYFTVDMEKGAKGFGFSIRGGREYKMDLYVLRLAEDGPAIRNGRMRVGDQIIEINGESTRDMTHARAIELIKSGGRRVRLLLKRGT

[22] = molecular target: MAGI3_2, Q5TCQ9
Chain of MAGI3_2, Q5TCQ9 (Q5TCQ9 398-503): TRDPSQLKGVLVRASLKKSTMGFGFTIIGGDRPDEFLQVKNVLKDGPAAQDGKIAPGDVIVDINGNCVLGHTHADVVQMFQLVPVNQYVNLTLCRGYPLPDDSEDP

[23] = molecular target: T7, PARD3B_1, Q8TEW8
T7 sequence (Q8TEW8 196-299, limits assumed, looked up): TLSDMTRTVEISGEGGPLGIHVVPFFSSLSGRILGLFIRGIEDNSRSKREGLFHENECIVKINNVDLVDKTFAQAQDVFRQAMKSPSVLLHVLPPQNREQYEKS

[24] = molecular target: T8, PCLO, Q9Y6V0
T8 sequence (Q9Y6V0 4491-4600, limits assumed, looked up): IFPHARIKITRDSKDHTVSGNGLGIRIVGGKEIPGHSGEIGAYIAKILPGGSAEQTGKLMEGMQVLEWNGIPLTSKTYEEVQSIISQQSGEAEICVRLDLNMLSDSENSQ

[25] = molecular target: T9, RAPGEF6, Q8TEU7
T9 sequence (Q8TEU7 525-625, limits assumed, looked up): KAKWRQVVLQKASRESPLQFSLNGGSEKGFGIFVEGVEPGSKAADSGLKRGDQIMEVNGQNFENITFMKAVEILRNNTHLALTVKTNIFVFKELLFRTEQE

[26] = molecular target: T10, SNTG2, Q9NY99
T10 sequence (Q9NY99 68-166, limits assumed, looked up): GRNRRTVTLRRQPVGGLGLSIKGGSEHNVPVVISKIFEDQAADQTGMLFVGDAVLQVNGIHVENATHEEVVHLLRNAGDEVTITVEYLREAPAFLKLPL

[27] = molecular target: T11, TX1BP3, O14907
T11 sequence (O14907 10-122, limits assumed, looked up): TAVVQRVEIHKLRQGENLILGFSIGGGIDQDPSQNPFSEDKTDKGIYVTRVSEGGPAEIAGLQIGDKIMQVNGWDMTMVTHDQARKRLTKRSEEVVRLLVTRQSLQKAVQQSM

[28] = plain residues with an end cap or a label only (N-terminal biotin on a linker: (peg)3)
[29] = plain residues with an end cap or a label only (N-terminal biotin on a linker: ado-ado)

B1: SARS-CoV-E, P59637 (peptide)
chain: NLNSSEGVPDLLV
pKd [1, 28]: below the threshold
pKd [2, 28]: below the threshold
pKd [3, 28]: below the threshold
pKd [4, 28]: below the threshold
pKd [5, 28]: below the threshold
pKd [6, 28]: below the threshold
pKd [7, 28]: below the threshold
pKd [8, 28]: below the threshold
pKd [9, 28]: below the threshold
pKd [10, 28]: below the threshold
pKd [11, 28]: below the threshold
pKd [12, 28]: below the threshold
pKd [13, 28]: below the threshold
pKd [14, 28]: below the threshold
pKd [15, 28]: below the threshold
pKd [16, 28]: below the threshold
pKd [17, 28]: below the threshold
pKd [18, 28]: below the threshold
pKd [19, 28]: below the threshold
pKd [20, 28]: 4.06
pKd [21, 28]: below the threshold
pKd [22, 28]: below the threshold
pKd [23, 28]: below the threshold
pKd [24, 28]: below the threshold
pKd [25, 28]: below the threshold
pKd [26, 28]: below the threshold
pKd [27, 28]: below the threshold

B2: SLC34A1, Q06495;Q06495-1 (peptide)
chain: LPAHHNATRL
pKd [1, 29]: below the threshold
pKd [2, 29]: 4
pKd [3, 29]: below the threshold
pKd [4, 29]: 4.11
pKd [5, 29]: below the threshold
pKd [6, 29]: below the threshold
pKd [7, 29]: below the threshold
pKd [8, 29]: below the threshold
pKd [9, 29]: below the threshold
pKd [10, 29]: below the threshold
pKd [11, 29]: 4.26
pKd [12, 29]: below the threshold
pKd [13, 29]: below the threshold
pKd [14, 29]: below the threshold
pKd [15, 29]: below the threshold
pKd [16, 29]: below the threshold
pKd [17, 29]: below the threshold
pKd [18, 29]: below the threshold
pKd [20, 29]: below the threshold
pKd [21, 29]: below the threshold
pKd [23, 29]: 4.62
pKd [24, 29]: below the threshold
pKd [25, 29]: below the threshold
pKd [26, 29]: 4.15
pKd [27, 29]: below the threshold

B3: PDLIM4_iso2, P50479;P50479-1 (peptide)
chain: VYPNAKVELV
pKd [1, 29]: below the threshold
pKd [2, 29]: 3.91
pKd [3, 29]: below the threshold
pKd [4, 29]: below the threshold
pKd [5, 29]: below the threshold
pKd [6, 29]: below the threshold
pKd [7, 29]: below the threshold
pKd [8, 29]: below the threshold
pKd [9, 29]: below the threshold
pKd [10, 29]: below the threshold
pKd [11, 29]: below the threshold
pKd [12, 29]: below the threshold
pKd [14, 29]: below the threshold
pKd [16, 29]: below the threshold
pKd [17, 29]: below the threshold
pKd [18, 29]: below the threshold
pKd [19, 29]: below the threshold
pKd [21, 29]: below the threshold
pKd [22, 29]: below the threshold
pKd [24, 29]: below the threshold
pKd [25, 29]: below the threshold
pKd [27, 29]: below the threshold

B4: ATP2A2, P16615;P16615-3 (peptide)
chain: YLEPVLSSEL
pKd [1, 29]: below the threshold
pKd [2, 29]: below the threshold
pKd [3, 29]: below the threshold
pKd [4, 29]: 4.55
pKd [5, 29]: below the threshold
pKd [7, 29]: below the threshold
pKd [8, 29]: below the threshold
pKd [9, 29]: below the threshold
pKd [10, 29]: below the threshold
pKd [11, 29]: 4.82
pKd [12, 29]: below the threshold
pKd [13, 29]: below the threshold
pKd [14, 29]: below the threshold
pKd [15, 29]: below the threshold
pKd [16, 29]: below the threshold
pKd [17, 29]: below the threshold
pKd [19, 29]: 4.24
pKd [20, 29]: below the threshold
pKd [21, 29]: 3.91
pKd [22, 29]: below the threshold
pKd [23, 29]: 4.04
pKd [24, 29]: below the threshold
pKd [25, 29]: below the threshold
pKd [26, 29]: below the threshold
pKd [27, 29]: 3.94

B5: TRIM29, Q14134;Q14134-2 (peptide)
chain: KSGKQTMLVV
pKd [1, 29]: below the threshold
pKd [2, 29]: below the threshold
pKd [6, 29]: below the threshold
pKd [8, 29]: 3.93
pKd [9, 29]: below the threshold
pKd [10, 29]: below the threshold
pKd [11, 29]: below the threshold
pKd [12, 29]: below the threshold
pKd [14, 29]: below the threshold
pKd [16, 29]: below the threshold
pKd [17, 29]: below the threshold
pKd [18, 29]: below the threshold
pKd [19, 29]: below the threshold
pKd [20, 29]: 4.23
pKd [21, 29]: below the threshold
pKd [23, 29]: below the threshold
pKd [24, 29]: below the threshold
pKd [25, 29]: below the threshold
pKd [26, 29]: below the threshold
